Test results reported in patent US20190030060A1.

Legend:
[1] = target: Semaphorin 4D secreted by HNSCC cell lines into conditioned medium (cleaved form, ~120 KDa) (human) (UniProt Q92854); assay: cell-based or functional assay
[2] = target: recombinant human Sema4D (sCD100) (Cat #310-29) (Peprotech, Rocky Hill, N.J.) (human) (UniProt Q92854); assay: indirect ELISA, antigen coated on plate, standard curve with recombinant Sema4D, goat anti-mouse IgM-HRP

reduction in the MDSC population (CD33+ CD11b+ HLA-DR-/low) of myeloid cells cultured in HNSCC conditioned medium, flow cytometry, against isotype control mAb [1] [%] | detection limit [2] [ng/mL] | Substance
50 |  | anti-Sema4D antibody (clone 30/CD100) (Cat #610670) (BD Biosciences PharMingen, San Diego, Calif.)
 | 3.1 | anti-human CD100 antibody (clone: 133-1C6; Novus Biologicals)
